What was measured:
[1] = State and viscosity measurement of medium composition (E type viscometer); format: physicochemical; conditions: DMEM/F-12; for viscosity: 37°C, 100 rpm
Experimental: The viscosity of the liquid containing the structure can be measured, for example, by the method described in the below-mentioned Examples. Specifically, it can be measured under 37° C. conditions and using an E-type viscosity meter (manufactured by Toki Sangyo Co., Ltd., TV-22 type viscosity meter, model: TVE-22L, corn roter: standard roter 1° 34′×R24, rotation number 100 rpm).
This aqueous solution was allowed to cool to room temperature with stirring, and sterilized at 121° C. for 20 min in an autoclave. […] The viscosity of the medium compositions was measured using an E type viscometer (manufactured by Toki Sangyo Co., Ltd., Viscometer TVE-22L, standard roter 1° 34′×R24) under 37° C. condition at 100 rpm for 5 min.
The medium compositions prepared above were subjected to a suspension test of HeLa cell spheres and a viscosity measurement, in the same manner as with the deacylated gellan gum-containing medium. The viscosity of 1.0% (w/v) methylcellulose was measured at 50 rpm due to the measurement range of the apparatus.

HeLa cell spheres = experiment: Cell suspension test with HeLa cell spheres; format: cell-based, human; conditions: DMEM/F-12, 37°C, 1 hr
Experimental: Human cervical cancer cell line HeLa (manufactured by DS PHARMA BIOMEDICAL CO., LTD.) was suspended in EMEM medium containing 10% (v/v) fetal bovine serum (manufactured by WAKO) at 250000 cells/mL, the suspension (10 mL) was plated on EZ SPHERE (manufactured by ASAHI GLASS CO., LTD.), and cultured in a CO2 incubator (5% CO2) for 3 days. The obtained suspension (10 mL) of spheres (diameter 100-200 μm) was centrifuged (200 G, 5 min) to allow for sphere sedimentation, and the supernatant was removed to give a sphere suspension (1.0 mL). Successively, the deacylated gellan gum-containing medium prepared above was placed in a 1.5 mL Eppendorf tube by 1.0 mL, and a HeLa cell sphere suspension (10 μL) was further added. The cell aggregate was dispersed by tapping, incubated at 37° C., and the dispersion state of the cells 1 hr later was visually observed.
In the same manner as in Reference Experimental Example 2, spheres of HeLa cells were formed, and several tens of the spheres were added to each medium (1 mL) prepared above, the mixture was stood still at 37° C. for 1 hr, and the suspended state of the sphere cells was visually observed. […] Furthermore, it was confirmed that addition of an equal amount of the medium to the cell suspension and centrifugation (300 to 400 G, 5 min) thereof result in sedimentation and recovery of the spheres of HeLa cells.
In the same manner as in Reference Experimental Example 2, spheres of HeLa cells were produced, and several tens of spheres were added to each medium (1 mL) prepared above, the mixture was stood still at 37° C. for 1 hr, and the suspended state of the sphere cells was visually observed. […] Furthermore, it was confirmed that centrifugation (200 G, 5 min) of the cell suspension containing 0.1% (w/v) diutan gum result in sedimentation and recovery of the spheres of HeLa cells.

In the case of collagen, the state ([1]; collagen 0.01% (w/v)) is reported as “liquid”, the viscosity ([1]; collagen 0.01% (w/v)) is reported as 1.18 mPa · s and the state ([1]; collagen 0.05% (w/v)) is reported as “liquid/solid”. The viscosity ([1]; collagen 0.05% (w/v)) was “unmeasurable”, the state ([1]; collagen 0.1% (w/v)) was “solid (gel)” and the viscosity ([1]; collagen 0.1% (w/v)) was “unmeasurable”. The state ([1]; collagen 0.2% (w/v)) was “solid (gel)”, the viscosity ([1]; collagen 0.2% (w/v)) was “unmeasurable” and the HeLa cell suspension/sedimentation (HeLa cell spheres; collagen 0.01% (w/v)) was “sedimentation”. The HeLa cell suspension/sedimentation (HeLa cell spheres; collagen 0.05% (w/v)) was “suspension”, the HeLa cell suspension/sedimentation (HeLa cell spheres; collagen 0.1% (w/v)) was “suspension” and the HeLa cell suspension/sedimentation (HeLa cell spheres; collagen 0.2% (w/v)) was “suspension”.

Reference: patent US10519419B2, “Method for producing culture medium composition” (NISSAN CHEMICAL CORPORATION, priority 2014, dated 2019)
